Source: publication PMC6307885, “Spatiotemporal control of axillary meristem formation by interacting transcriptional regulators” (Development (Cambridge, England), 2018)

Legend:
[1] = target: T1, BD-REV (full-length REV fused to the binding domain of GAL4) (Arabidopsis thaliana, UniProt Q9SE43 1-842); test: cell-based or functional assay
T1 sequence (looked up): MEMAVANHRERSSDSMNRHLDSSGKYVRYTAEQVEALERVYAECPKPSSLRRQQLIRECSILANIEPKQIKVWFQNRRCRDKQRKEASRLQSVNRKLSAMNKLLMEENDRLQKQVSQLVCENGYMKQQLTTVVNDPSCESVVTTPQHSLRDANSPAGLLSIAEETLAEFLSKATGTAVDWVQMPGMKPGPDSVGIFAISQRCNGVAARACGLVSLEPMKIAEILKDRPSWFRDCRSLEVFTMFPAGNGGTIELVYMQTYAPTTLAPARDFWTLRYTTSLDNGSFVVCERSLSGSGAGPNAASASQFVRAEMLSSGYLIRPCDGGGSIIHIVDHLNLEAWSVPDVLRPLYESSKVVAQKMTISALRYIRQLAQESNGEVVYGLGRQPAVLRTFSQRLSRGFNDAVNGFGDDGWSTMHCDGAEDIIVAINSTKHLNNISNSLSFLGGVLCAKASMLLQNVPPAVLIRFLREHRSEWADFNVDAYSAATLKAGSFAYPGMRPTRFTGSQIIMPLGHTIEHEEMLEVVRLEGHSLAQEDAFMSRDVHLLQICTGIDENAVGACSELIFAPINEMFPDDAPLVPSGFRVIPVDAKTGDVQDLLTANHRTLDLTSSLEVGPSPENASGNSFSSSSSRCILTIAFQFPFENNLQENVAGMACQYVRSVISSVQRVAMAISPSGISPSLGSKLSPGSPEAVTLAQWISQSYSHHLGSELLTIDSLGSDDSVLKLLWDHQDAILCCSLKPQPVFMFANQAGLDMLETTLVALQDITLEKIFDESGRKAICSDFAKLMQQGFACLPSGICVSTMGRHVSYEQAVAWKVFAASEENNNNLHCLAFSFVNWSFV

[2] = target: T2, DRN-GFP (DORNRÖSCHEN fused to GFP, from pDRN::DRN-GFP plants) (Arabidopsis thaliana, UniProt Q9SAD4 1-328); test: co-IP; anti-GFP on Protein A sepharose beads, blot probed with anti-MYC; extracts of young (younger than P10) and mature (older than P10) leaf axil-enriched tissues of pDRN::DRN-GFP p35S::REV-MYC plants, equal amounts of DRN-GFP; 20 mM HEPES pH 7.5, 40 mM KCl, 1 mM EDTA, 1% Triton X-100; settings: partners not purified
T2 construct: DORNRÖSCHEN (DRN/ESR1), AP2 family transcription factor, Arabidopsis thaliana, At1g12980; Cole et al., 2009; also called ESR1; ENHANCER OF SHOOT …ON 1; source: Arabidopsis pDRN::DRN-GFP p35S::REV-MYC plants, extract of leaf axil-enriched shoot tissues
T2 sequence (Q9SAD4 whole entry, the tested form may be a part): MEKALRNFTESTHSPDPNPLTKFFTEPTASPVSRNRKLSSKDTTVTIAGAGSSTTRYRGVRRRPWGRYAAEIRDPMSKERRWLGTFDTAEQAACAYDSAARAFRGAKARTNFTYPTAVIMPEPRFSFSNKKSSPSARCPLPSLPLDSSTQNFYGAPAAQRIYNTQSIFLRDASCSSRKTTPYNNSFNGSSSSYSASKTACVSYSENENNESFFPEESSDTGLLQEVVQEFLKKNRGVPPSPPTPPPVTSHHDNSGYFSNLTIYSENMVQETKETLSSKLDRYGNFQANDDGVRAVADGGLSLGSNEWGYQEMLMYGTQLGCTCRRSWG

B1: AD-DRN (full-length DRN fused to the activation domain of GAL4) (natural protein)
chain: not shown
pSTM::Luc reporter (LUC/GUS) in Arabidopsis protoplasts; co-transformation of p35S::DRN and p35S::REV against transformation with one alone [1]: ~2.5 fold

B2: AD-DRNL (full-length DRNL fused to the activation domain of GAL4) (natural protein)
chain: not shown
pSTM::Luc reporter (LUC/GUS) in Arabidopsis protoplasts; co-transformation of p35S::DRNL and p35S::REV against transformation with one alone [1]: ~2.5 fold

B3: REV-MYC (REVOLUTA with MYC tag, from p35S::REV-MYC plants) (natural protein, Arabidopsis thaliana, UniProt Q9SE43 1-842, looked up)
chain: MEMAVANHRERSSDSMNRHLDSSGKYVRYTAEQVEALERVYAECPKPSSLRRQQLIRECSILANIEPKQIKVWFQNRRCRDKQRKEASRLQSVNRKLSAMNKLLMEENDRLQKQVSQLVCENGYMKQQLTTVVNDPSCESVVTTPQHSLRDANSPAGLLSIAEETLAEFLSKATGTAVDWVQMPGMKPGPDSVGIFAISQRCNGVAARACGLVSLEPMKIAEILKDRPSWFRDCRSLEVFTMFPAGNGGTIELVYMQTYAPTTLAPARDFWTLRYTTSLDNGSFVVCERSLSGSGAGPNAASASQFVRAEMLSSGYLIRPCDGGGSIIHIVDHLNLEAWSVPDVLRPLYESSKVVAQKMTISALRYIRQLAQESNGEVVYGLGRQPAVLRTFSQRLSRGFNDAVNGFGDDGWSTMHCDGAEDIIVAINSTKHLNNISNSLSFLGGVLCAKASMLLQNVPPAVLIRFLREHRSEWADFNVDAYSAATLKAGSFAYPGMRPTRFTGSQIIMPLGHTIEHEEMLEVVRLEGHSLAQEDAFMSRDVHLLQICTGIDENAVGACSELIFAPINEMFPDDAPLVPSGFRVIPVDAKTGDVQDLLTANHRTLDLTSSLEVGPSPENASGNSFSSSSSRCILTIAFQFPFENNLQENVAGMACQYVRSVISSVQRVAMAISPSGISPSLGSKLSPGSPEAVTLAQWISQSYSHHLGSELLTIDSLGSDDSVLKLLWDHQDAILCCSLKPQPVFMFANQAGLDMLETTLVALQDITLEKIFDESGRKAICSDFAKLMQQGFACLPSGICVSTMGRHVSYEQAVAWKVFAASEENNNNLHCLAFSFVNWSFV
notes: REVOLUTA (REV), class III homeodomain-leucine zipper transcription factor, Arabidopsis thaliana, At5g60690; source: Arabidopsis pDRN::DRN-GFP p35S::REV-MYC plants, extract of leaf axil-enriched shoot tissues
fold stronger co-precipitated REV-MYC band, old against young leaf axil-enriched tissues [2]: ~3 fold
